For orientation: Km means the substrate concentration at which the rate is half of its maximum. In general, kcat refers to the maximal rate divided by the concentration of active sites.

We go through 1 protein from paper PMC3835915, “Diversification of Fungal Specific Class A Glutathione Transferases in Saprotrophic Fungi” (PLoS ONE, 2013).

Substrate in the data set: S=C=NCCc1ccccc1
The data set is described as follows: purified protein. The class given is biochemical, Phanerodontia chrysosporium. The note with it: 5 mM GSH, pH 6.5, 2% acetonitrile.

B1: PcGSTFuA1 (Phanerodontia chrysosporium) (protein)
chain: MAQPIVFYDIPSNERIKHSPWSPNTWKIRYALNYKGLKYKTEWVEYPDIAGVVQKLGGKPTEKTPDGRDHYTLPVIYDPNTKKVVEDSAAIAKYLDETYPDTPKLFPAGTDAFQAAFLDFAWPVLGFPVFMLVILDTANSLLPRSHDYFRSTREQKFGKKLEELATEEEWAKVEAGLAKLKGYLDANGKGNDLLLMGAQGGITYSDIQIASFFVWAKIIWGEGSEKWKRLISLHDGKWAQFYAQFTKFEQVDV
notes: full length, untagged, pET-3d, E. coli BL21(DE3) pSBET; Ala inserted after Met1; dimer; primers encode N-term MAQPIVF, C-term EQVDV
For B1, the Km amounted to 119.0 ± 14.4 µM and the kcat came out at 8.515 ± 0.267 s⁻¹.
